The series can be described thus: soluble fraction after stress (log2 fold change); higher = more stays soluble; pooled small domains, quantitative proteomics. The conditions noted are these: stress: pH 4. In outline:
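Aggregation propensity is read out as the fold change in how much of each domain remains soluble after acid stress. The custom small-domain libraries were pooled, held at pH 4 and analysed with high-throughput quantitative proteomics. On the log2 scale used, higher values mean more of the domain stayed soluble.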
For “HMQVSITGYLGGEKIGLFDDAKFKALAAKQGIAIDYRKAGSPAMMDADRKGMDYLFPSSRAAVEYGNAKGV”, the “soluble fraction (log2)” value turned out to be 0.144. The value for “HMQVTDTGTIEGEIDKVLAANPDRVTEYHDGKEKILGWFVGQVMQTTKGKANPQMVNQLFLEKLK” was -0.00465; that for “HMQVTPQVLRLLDVLGDKELSLRQIAEALGLSDRKNIMRNYVVPALDSGRVVRTVPNKPNSRFQKYRK” was 0.0808. The value for “HMQYDALVLNLLQEKNLTSESLKDAQRAFAKSHNLSTLPSKSQILQAYFQLLEQGKIEKNPDFELLL” was 0.0152; that for “HMQYFDIETEIQKFIKSENNLSDFDKETLQSFLYQLSKGSPEENTAKKVVDILNKFLPLTTAIINMIKALT” was -0.381; that for “HMQYYITKIANYDQVSPNLLVRTAEGQYMVKTNADILDTDVTKLTEEEIRKDWGYLFENGFSELV” was -0.681.

Consider “HMRAAEPTTDAQRDRRRRIVLTAMTMLQERGYDEIQMRDVAQQAGVALGTLYRYFPSKEQLFAHVLVE”, for which the “soluble fraction (log2)” value was -0.68.

“HMRAAFEHLTIGQTVSGLVKSQARGVSLVEIEGQTVAMRLPQPVAVGDTLRLRFAGHMPQPVFLLDT”: the “soluble fraction (log2)” value was -0.0299. The same measure for “HMRADYVGGLDPAGDNFLALRTGPGSGYAMILPMGPGTFVTVLRRNGKWLLVELEDGTRGWAYGSYILG”: -1.16; for “HMRAGALTTLTERERNVFDLVVTGHSNPEIARQLSIADVTVKTHVGHILSKLGVRDRVHLVIWAHRQGLAD”: 0.0561; for “HMRAMWENLFFQYKEGFLPEEYYKQGIATGIRLAGPKFVEMNIPMQKEFEDEVHRLLAEHEKSVK”: -0.795. The same measure for “HMRASVTYVVQVNGKLRGKLEVAPDIDPEELKKLALEVENVKHSLQGWTVKKVIVIPGKMVSIAAGK”: -0.296; for “HMRAVEGKRLKRLLRTNLIAIERDQILQYPLRKRPLAIVTRAVRATNPDAVIVNDAGDDVFARALDVLLAS”: -1.23. The same measure for “HMRDAKSQLQEALQKSGRLPEYELVSVEGPPHAPVFTYRVRIDGAVVGEGQGASKQAAQQAAAQSALKSG”: 0.22; for “HMRDDAIQQGREIVERELHRLDLAYTTLTDVLAKLEYEKLDDLYAAVGFGIRSPHSVAAAALQVERDKA”: -1.19. As for “HMRDGHEQLQGVLSAIKFHQANFLIGVLDDGTTVKGNMLSPQVGLEYTFRGRRERHPRWGEQFAFMDYRV”, the “soluble fraction (log2)” value was -1.82. The same measure for “HMRDIGKNIRYYREKKGYSQEQLAQLLFVTRQTVSNYETSRSRPDVETLVKLAGLLDIDVTDLIYGPR”: 0.0792. For “HMRDKSITFSEFVKLLDEGQIQKVTLTGNEILGTQKSGDKFRTYAPPQYEGLGNKLVERSVEVTAKE”, the “soluble fraction (log2)” value is 0.188. In the case of “HMRDLVTYVVQVNGKLRGKLEVSPSTDDNSLKTMALELENVQRALEGLSVKKVIVIPGKMVSIAAG”, the “soluble fraction (log2)” value was -0.355.

Take “HMRDVVVVPDLSGLTQMEALSKLDAESLNIGEINYGVSEMPEGVIFKQDPVYGTELMKGDTVDIFISGR”: the “soluble fraction (log2)” value was -0.709.

For “HMRDYKTHLQEVLQSKGEVNIWYKLIDEKGPDHNKKFVMQVGIDSKILGFGEGKSKKEAEQVAARKALDNI”, the “soluble fraction (log2)” value was -0.317. As for “HMREGIQLGDPVRVIRDPLFGKIGAVSGLPSELRAIPTESEVRVLEVRFPDGTTTVVPRANIEVIEG”, the “soluble fraction (log2)” value was -0.229. The same measure for “HMREIEVNYAAGDSVRVIDGPLAGFIGVVSSVEPDKNKVNVTVSMFGRETPVELELDQVETLD”: -0.669; for “HMREISSDELHSLFSADQRGDLVINETTRLSIEKLYALHTPEEREAKVNELSGVLPSEAHRQLVHFLDYFD”: -1.54; for “HMREITVEELYELEGIRIVGTIPGISAWVAESGRQMVFLVGQKVKGHDLLEVGESRVVLRKGDSVVNVLL”: -1.21. The same measure for “HMREKPRETFQRIAEKVGQTLRKGPVRVQQMDLLFSESREQVMEVLRAMAESGEIRIQDDTLHWNGHT”: 0.193; for “HMRELPKRPEIRYAAGDRVFHKAFGNGLVKQVAQTAGGARVTVDFGEGKGVKTFAGDAPMIKI”: 0.326; for “HMRELSDFEKLLFTTTLERKMINLAMLLTRSNKADSKDLIQDSYLKAIENQVQFNGNNIDAWVITILKNTF”: -0.361. The same measure for “HMRENAARNRNVNLDIGETLRVDAWSPERRARVQYRGAAWDVELAPNAPATVGEFRIVEVRGNVLVVTP”: -0.0451; for “HMREPIPVPSRPIRAGDLVEIPGTNRPAEVTAVKGDRLVLKAGVLSMTVKNDEVRLIEDDERAAM”: 0.208. With “HMREQAHEVAGKLGYPVMVKASAGGGGKGIRIVRTEDELDQAFEAAQSETKAAFGDDQMYMEKVI”, the “soluble fraction (log2)” value was -0.176. The value for “HMRESDQSTVELSLERTIQEALMVNPRTSSVEEFSFEWGTGRVKVSFIVYSVDGEPFTVDSIIE” was -1.19; that for “HMREVEAPRDLLAALGERPGALDAWKALSFTHQREYVEAIEDARKPETRERRIANAVKMVAERS” was 0.111; that for “HMREVPHGEYEVKIEKLELVESKAGDPMVTVWFKVLAGDYKGSMIFMNQVITKGFQIHIMNEFLR” was -1.1. The same measure for “HMREYEKAVDYVRRMISSGSLNVGDRLPTERELSLELDISRNSTREAMRMLENMGIIVSRHGSGNYISGN”: -0.222.

In the case of “HMRFDADELQKAYDLFDADENTPFKTIKQAYYALARRHHPDKNGDQEYFKVINNAFQLIQEHRRRRDN”, the “soluble fraction (log2)” value is -0.412. The value for “HMRFGNHHVYRTLMVLSDQKRKGRKQIADAVGIGEGSMRTIIEYLRGLDMIDIRQTGVKITRHGNAFL” was 0.138; that for “HMRGAARRDRAVGERAVSKDTILDATRALLRKGSALEIRAIDIAEESGLSRQTVFQYYPVIRLIFFELSD” was 0.155. The value for “HMRGETSYANDIIKRLKQANLIVVEGTLYPLLNRLKKDGLLHYEWRESQQGPPRKYYGLTEEGEA” was 0.0328; that for “HMRGFGEVGQLPSGRYRARYTGPDGGRHSAPITFVARIDAEGWLVDQERMISRGEWEPPARQ” was -0.384. Take “HMRGFGYVRRLPSKRYQASYAGPDLQRHVAPTTFTTKADAESWLGAERKVVESGSWRPPAVREAEARLS”: the “soluble fraction (log2)” value stood at 0.412. The value for “HMRGLIEPLSQRELEVLMLMARGQSNAHIADQLNISENTIKWHGRNIFGKLGVSNRTEAVITSQEMGMLAT” was -0.711. The value for “HMRGRFGNAAPARNLGDHPQGGAINVKAGRYGPYVSWGKVNATLPKDSDPEKVTLEEAVALIAAKQSGQG” was 0.218; that for “HMRGVDRPLTLPRHWRRNAGRLVKVTLANGSAVTGRVLDPGEERVTLEVSGERHEVAYADVKKALVQVEF” was -0.32.

Regarding “HMRHLSVPNRQVEGALDHIRSQGWLAEGMRVFASEDGSARLIPLGPGAPLEMLEPLAKFDVISHEGKPY”, the “soluble fraction (log2)” value is -0.771. Turning to “HMRHSLAAALTELRRLAALDLGDFFRFEYVSHTDSLGGKQQAYTEGIRVSFGVYLGVNKKDRLNVDPVV”, the “soluble fraction (log2)” value is -2.38. As to “HMRHTRQRQAVLDALVRSGQALSPQDLLGQAKSAVPSLNLSTVYRQIKGLQDAGQIVRVELPGQPPRFEM”, the “soluble fraction (log2)” value is -0.0347.

Regarding “HMRIAQYRQIENDLLEQINLGYYKKGDLIPTELELSATYHVSRVTVRKATDNLVAKGILQRVAGVGTFVSR”, the “soluble fraction (log2)” value stood at 0.0958.

As to “HMRIATVTPIEEDQASDRVVAVYNDIKSTKQIDFIPNFWKVIAVNPDLLEQVWGQLKTLMHPEEVG”, the “soluble fraction (log2)” value is -0.948. The same measure for “HMRIEDTMDYINKIKEKLKNNGGVITSKEFTRSNIPTIYLTRMVETGELIRIDRGIYINSSG”: -0.462; for “HMRIEYYDDEELDRYIGTPASGYREAAVEEFREILLTLDADDVPGWVRSLQLRGIEFPESLRPELYL”: -1.5. The value for “HMRIFDDNMIFPTEAEISAALKRLVMDLPKVGFLQGHGERAVDNVGERAYSMFTHANNFRYALINQGFVT” was -0.0562.

Take “HMRIHKQLGDRIRNLRLSSGMNQEELAFKSGISAAHLGQIERGLKSPTISTIQKIAKALNVTLPILF”: the “soluble fraction (log2)” value was found to be 0.311. The value for “HMRININNASARQIADALPGVGLKTARDIKDFQTTLSGERYTRLDQLHSIKRVDWDEIFKADLVRV” was 0.158; that for “HMRISMRDQVYEIIKNRILSREYSLGEPINIVHLSKELGISNTPIREALSQLETERLITINSNQKYHVT” was -0.0135. “HMRKDEFLQTLRRALNGNVPPRVVEENVRYYDGYISDEVRKGRSEEEVIEEIGDPRLIARTIEDTT”: the “soluble fraction (log2)” value is -0.187. In the case of “HMRKDRKVLMERGRHIFNDLLEKEGIVATNQLMTKLLASHHLRNRDELYLMLANDDISLSSKEIKDLS”, the “soluble fraction (log2)” value worked out at 0.22. With “HMRKEDYLPIGSVINMDDRKFRVDSVDFDKDKVSLQDMALADARMPIFWEEPLTVVRELYEQQDE”, the “soluble fraction (log2)” value was -0.899. The same measure for “HMRKEPSYASDIITRLKEADLIVVEGTLYPLLTRLKKDGLLSYEWRESTQGPPRKYYALTLDGET”: -0.895; for “HMRKIGDVLRLHAGGLSKRRIAVSLNIGRTAVGDYISRARRAGLGWPLPEDLSEEALERLLFPPP”: 0.151; for “HMRKIVEGVLTKKEGKWYLLTDIETYKISDASAEYHKAELNDRASALIPAQNPKVPFASLEKVFN”: 0.186. The value for “HMRKLHFVMSEIYEDHPWIGSKLQDVFLPKDIRVVLVERDSKQFMPNGQTLFELGDRLTLSALHYDPA” was -2.22; that for “HMRKLTDRQRQILDLIKTIIAETGAPPTRAEISTALGFKSANAAQEHLQALAQKGMIDLVSGASRGIRLRG” was -0.194; that for “HMRKMELTEAAEKLIEEPDVVSAYRNMQQIFQQWREIGPVPREQRDEVWSHFKDLMTQVNRRHQAHFEN” was -0.258. The value for “HMRKPLDQSWVPDDDAMKILTNSGIEKEFIKNEIPEFILYWSDKGEISDSWNTKFISQIRRQWAKNQ” was -0.465; that for “HMRKSAVSSTLTSIEGIGATRAKALLKHFKTVAAVSEADLKELEDAPGMTRPSALRVYEYFHGK” was 0.0795; that for “HMRKSLGEIVFDRMERAIKSGAYSPDERLPTELDLAAEFEVSRPVIRDALKRLRERGLIYSRQGAGSFVRA” was -0.25. As to “HMRKTIQDFLSSNKVDIAKLLTLALEKTKEDLYKNLSYNLTNKELEKLKLLIKKREQGIPFAYLS”, the “soluble fraction (log2)” value was determined as 0.0954.

The record behind these values is the domain aggregation screens of Martell et al. (2025).
